# According to patent US20160304625A1:
# B1: monoclonal antibody mAb4-2b (antibody, mouse IgG1, V domains shown)
# VH: EVQLEESGAELVKPGASLKLSCKASGYTFTSYWMNWVKQRPGQGLEWIGIIHPNSGSTNYNEKFKTKATLTVDKSSSTAYMQLSSLTSEDSAVYYCARTRGNYGMDYWGQGTSVTVSS
# VL: DIVMTQSHKFMSTSVGDRVSITCKASQDVSTAVAWYQQKPGQSPTLLIYSASYRNTGVPDRFTGSGSGTDFTFTISSVQAEDLAVYYCQQHFSIPPLTFGAGTKLELKR
# Key:
# [1] = target: mIgM proximal domain peptide conjugated to keyhole limpet hemocyanin (human); experiment: ELISA, KLH-PDm
# [2] = target: mIgM proximal domain peptide conjugated to keyhole limpet hemocyanin (human); experiment: ELISA direct binding, mIgM-PD-KLH
# [3] = target: mIgM proximal domain peptide conjugated to keyhole limpet hemocyanin (human); experiment: competition ELISA on KLH-mIgM-PD, competitor unlabeled mAb 1
# [4] = target: mIgM proximal domain peptide conjugated to keyhole limpet hemocyanin (human); experiment: competition ELISA on KLH-mIgM-PD, competitor unlabeled mAb 2
# [5] = target: mIgM proximal domain peptide conjugated to keyhole limpet hemocyanin (human); experiment: competition ELISA on KLH-mIgM-PD, competitor unlabeled mAb 3
# [6] = target: mIgM proximal domain peptide conjugated to keyhole limpet hemocyanin (human); experiment: competition ELISA on KLH-mIgM-PD, competitor unlabeled mAb 4
# [7] = target: mIgM proximal domain peptide conjugated to keyhole limpet hemocyanin (human); experiment: competition ELISA on mIgM-PD-KLH, competitor unlabeled mAb 1
# [8] = target: mIgM proximal domain peptide conjugated to keyhole limpet hemocyanin (human); experiment: competition ELISA on mIgM-PD-KLH, competitor unlabeled mAb 2
# [9] = target: mIgM proximal domain peptide conjugated to keyhole limpet hemocyanin (human); experiment: competition ELISA on mIgM-PD-KLH, competitor unlabeled mAb 3
# [10] = target: mIgM proximal domain peptide conjugated to keyhole limpet hemocyanin (human); experiment: competition ELISA on mIgM-PD-KLH, competitor unlabeled mAb 4
binder,measurement,setting,value
B1,ELISA reading,[1],0.9
same,ELISA reading,[2],0.5
same,mAb-HRP binding after blocking by unlabeled mAb,[3],74
same,mAb-HRP binding after blocking by unlabeled mAb,[4],68
same,mAb-HRP binding after blocking by unlabeled mAb,[5],72
same,mAb-HRP binding after blocking by unlabeled mAb,[6],14
same,mAb-HRP binding after blocking by unlabeled mAb,[7],52
same,mAb-HRP binding after blocking by unlabeled mAb,[8],71
same,mAb-HRP binding after blocking by unlabeled mAb,[9],62
same,mAb-HRP binding after blocking by unlabeled mAb,[10],9
